Molecular target: T1, MBP–AtdPHR1 (DNA-binding domain and coiled-coil domain of AtPHR1 fused to maltose-binding protein) (Arabidopsis thaliana, UniProt Q94CL7 208-362)
T1 construct: cloned in pMAL-c2x via BamHI and HindIII; the methods print 208–362, and the predicted mass of 60 651 fits 208–362 with MBP; also called MBPdAtPHR1; MBPdPHR1; source: E. coli BL21-gold (DE3), purified (amylose resin, IEX on HiTrap Q-HP); not shown: MBP, N-terminal, kept
Experiment: pull-down; MBP–AtdPHR1 from cell lysate immobilised on amylose matrix and washed, incubated with affinity-purified GST–AtSPX1 for 2 h at 4°C, eluted with 10 mM maltose, anti-GST blot; buffer with Pi (PBS pH 7.4, 200 mM NaCl, 1 mM EDTA, 1 mM DTT), compared with buffer without Pi (20 mM Tris pH 7.5, 200 mM NaCl, 1 mM EDTA, 1 mM DTT)
Settings: both partners purified

T1 sequence (Q94CL7 208-362): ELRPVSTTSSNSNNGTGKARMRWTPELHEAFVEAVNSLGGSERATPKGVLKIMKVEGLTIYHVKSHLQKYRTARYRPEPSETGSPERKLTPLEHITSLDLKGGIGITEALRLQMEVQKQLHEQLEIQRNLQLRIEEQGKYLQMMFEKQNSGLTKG

B1: GST–AtSPX1 (N-terminal GST-tagged full-length AtSPX1) (natural protein, Arabidopsis thaliana, UniProt Q8LBH4 1-256, looked up)
chain: MKFGKSLSNQIEQTLPEWQDKFLSYKELKKRLKLIGSKTADRPVKRLRLDEFSVGISKEEINFIQLLEDELEKFNNFFVEKEEEYIIRLKEFRDRIAKAKDSMEKMIKIRKEIVDFHGEMVLLENYSALNYTGLVKILKKYDKRTGDLMRLPFIQKVLQQPFYTTDLLFKLVKESEAMLDQIFPANETESEIIQAELSEHKFMESLHMKSTIAALRVLKEIRSGSSTVSVFSLPPLQLNGLDETWKKIPLLEQEAK
notes: AtSPX1, Arabidopsis thaliana, At5G20150.1, full-length cDNA in pGEX-2T via BamHI and EcoRI; also called GST–SPX1; not shown: GST, N-terminal, kept
  fold more in elution fraction E1 in the presence of phosphate than in its absence: 1.5 fold
  fold more in elution fraction E2 in the presence of phosphate than in its absence: 3.5 fold
